From paper PMC2423650 (Journal of Experimental Botany, 2008)
Residue numbers refer to the chain shown, from its start.

B1: atToc33-His (G-domain of atToc33, His-tagged) (domain or fragment, Arabidopsis thaliana, UniProt O23680 1-251, looked up)
chain: MGSLVREWVGFQQFPAATQEKLIEFFGKLKQKDMNSMTVLVLGKGGVGKSSTVNSLIGEQVVRVSPFQAEGLRPVMVSRTMGGFTINIIDTPGLVEAGYVNHQALELIKGFLVNRTIDVLLYVDRLDVYRVDELDKQVVIAITQTFGKEIWCKTLLVLTHAQFSPPDELSYETFSSKRSDSLLKTIRAGSKMRKQEFEDSAIAVVYAENSGRCSKNDKDEKALPNGEAWIPNLVKAITDVATNQRKAIHVD
B2: atToc33S/E-His (phospho-mimicking mutant of the atToc33 G-domain) (domain or fragment, Arabidopsis thaliana, UniProt O23680 1-251, looked up)
chain: B1 chain with S181E

Biological target: the molecule itself
Test: SEC

Protein | Kd | stoichiometry N | fold change of the dissociation constant against atToc33
B1 | 400 µM | 2 | –
B2 | – | 2 | ~10 fold
